Experiment in all cases: fluorescence, 4-mU release
Common to all, as to format: biochemical, Moraxella sp. TA144
Conditions in all cases: 0.1 M phosphate pH 7, 30 °C, 5% DMSO

Data set [1] relates to CCOCCOC(=O)c1ccc(C(=O)Oc2ccc3c(C)cc(=O)oc3c2)cc1. The text has this: (§1) fluorescence, 4-mU release on MoPE (polyesterase)
Data set [2] concerns COC(=O)c1ccc(C(=O)Oc2ccc3c(C)cc(=O)oc3c2)cc1.
Source text: as §1

In data set [3] the test system is COC(=O)c1ccc(C(=O)OCCOC(=O)c2ccc(C(=O)Oc3ccc4c(C)cc(=O)oc4c3)cc2)cc1.
Source text: as §1

Consider “MoPE (polyesterase) (Moraxella sp. TA144)”, for which the Km (as a rule, the concentration of substrate that gives half-maximal velocity) in data set [1] came to 15.6 ± 1.5 µM; in data set [2], 1.9 ± 0.1 µM; in data set [3] it was 17.4 ± 2.1 µM. Moreover, the turnover number (kcat) (in general, the maximal rate divided by the concentration of active sites) in data set [1] came to 0.00014 ± 1e-06 s⁻¹; in data set [2], 3e-05 ± 1e-06 s⁻¹.

The values above are taken from paper PMC11187625, “New Labeled PET Analogues Enable the Functional Screening and Characterization of PET-Degrading Enzymes” (ACS Sustainable Chemistry & Engineering, 2024).
